# Source: patent publication US20040228866A1, “Suppressor genes” (Ludwig Institute for Cancer Research, priority 2000, published 2004)
# T1: p73α (Homo sapiens, UniProt O15350)
# T1 construct: expressed in transfected cells; host or cells: H1299 and Saos-2; part of the results from in vitro translation
# T1 sequence (O15350 1-636): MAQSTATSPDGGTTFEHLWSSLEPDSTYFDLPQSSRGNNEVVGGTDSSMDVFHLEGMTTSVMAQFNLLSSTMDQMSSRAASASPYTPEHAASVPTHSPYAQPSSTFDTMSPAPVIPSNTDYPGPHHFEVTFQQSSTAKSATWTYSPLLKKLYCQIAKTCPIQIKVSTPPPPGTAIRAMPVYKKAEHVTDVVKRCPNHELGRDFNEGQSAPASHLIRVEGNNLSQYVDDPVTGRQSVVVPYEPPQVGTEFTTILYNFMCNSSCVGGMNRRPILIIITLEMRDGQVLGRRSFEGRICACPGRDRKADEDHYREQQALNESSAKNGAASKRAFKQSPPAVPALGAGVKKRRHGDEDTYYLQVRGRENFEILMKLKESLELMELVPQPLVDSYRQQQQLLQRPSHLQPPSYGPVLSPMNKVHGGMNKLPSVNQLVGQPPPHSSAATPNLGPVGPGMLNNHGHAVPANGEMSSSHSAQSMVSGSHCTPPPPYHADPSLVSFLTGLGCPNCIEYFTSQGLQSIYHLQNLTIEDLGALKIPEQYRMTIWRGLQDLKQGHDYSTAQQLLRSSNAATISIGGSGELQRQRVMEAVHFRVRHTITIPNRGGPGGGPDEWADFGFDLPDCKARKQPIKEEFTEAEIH
# T2: p63γ (Homo sapiens, UniProt Q9H3D4)
# T2 construct: expressed in transfected cells; host or cells: Saos-2
# T2 sequence (Q9H3D4 1-487 isoform Q9H3D4-5): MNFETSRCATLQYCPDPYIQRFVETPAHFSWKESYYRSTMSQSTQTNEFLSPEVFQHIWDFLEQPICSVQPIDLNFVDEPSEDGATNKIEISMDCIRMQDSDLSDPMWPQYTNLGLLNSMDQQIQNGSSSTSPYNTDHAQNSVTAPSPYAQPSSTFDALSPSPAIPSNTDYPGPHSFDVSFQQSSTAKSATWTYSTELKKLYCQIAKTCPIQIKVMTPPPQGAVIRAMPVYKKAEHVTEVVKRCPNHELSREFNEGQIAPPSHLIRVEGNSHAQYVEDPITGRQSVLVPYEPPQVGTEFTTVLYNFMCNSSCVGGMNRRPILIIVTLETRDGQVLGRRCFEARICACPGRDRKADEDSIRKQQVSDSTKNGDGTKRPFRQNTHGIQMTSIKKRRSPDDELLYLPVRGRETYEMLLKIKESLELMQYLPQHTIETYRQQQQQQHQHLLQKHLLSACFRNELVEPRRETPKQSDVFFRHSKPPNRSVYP
# B1: ASPP1: Apoptosis Stimulating Protein 1, protein of SEQ ID NO: 2, expressed from a transfected plasmid (protein, listed as Homo sapiens)
# chain: MMPMILTVFLSNNEQILTEVPITPETTCRDVVEFCKEPGEGSCHLAEVWRGNERPIPFDHMMYEHLQIWGPRREEVKFFLRHEDSPTENSEQGGRQTQEQRTQRNVINVPGDKRTEYGVGNPRVELTLSELQDMAARQQQQIENQQQMLVAKEQRLHFLKQQERRQQQSISENEKLQKLKERVEAQENKLKKIRAMRGQVDYSKIMNGNLSAEIERFSAMFQEKKQEVQTAILRVDQLSQQLEDLKKGKLNGFQSYNGKLTGPAAVELKRLYQELQIRNQLNQEQNSKLQQQKELLNKRNMEVAMMDKRISELRERLYGKKIQLNRVNGTSSPQSPLSTSGRVAAVGPYIQVPSAGSFPVLGDPIKPQSLSIASNAAHGRSKSANDGNWPTLKQNSSSSVKPVQVAGADWKDPSVEGSVKQGTVSSQPVPFSALGPTEKPGIEIGKVPPPIPGVGKQLPPSYGTYPSPTPLGPGSTSSLERRKEGSLPRPSAGLPSRQRPTLLPATGSTPQPGSSQQIQQRISVPPSPTYPPAGPPAFPAGDSKPELPLTVAIRPFLADKGSRPQSPRKGPQTVNSSSIYSMYLQQATPPKNYQPAAHSALNKSVKAVYGKPVLPSGSTSPSPLPFLHGSLSTGTPQPQPPSESTEKEPEQDGPAAPADGSTVESLPRPLSPTKLTPIVHSPLRYQSDADLEALRRKLANAPRPLKKRSSITEPEGPGGPNIQKLLYQRFNTLAGGMEGTPFYQPSPSQDFMGTLADVDNGNTNANGNLEELPPAQPTAPLPAEPAPSSDANDNELPSPEPEELICPQTTHQTAEPAEDNNNNVATVPTTEQIPSPVAEAPSPGEEQVPPAPLPPASHPPATSTNKRTNLKKPNSERTGHGLRVRFNPLALLLDASLEGEFDLVQRIIYEVEDPSKPNDEGITPLHNAVCAGHHHIVKFLLDFGVNVNAADSDGWTPLHCAASCNSVHLCKQLVESGAAIFASTISDIETAADKCEEMEEGYIQCSQFLYGVQEKLGVMNKGVAYALWDYEAQNSDELSFHEGDALTILRRKDESETEWWWARLGDREGYVPKNLLGLYPRIKPRQRTLA
# B2: ASPP2: full length 1128 amino acid protein, SEQ ID NO: 4 (protein, listed as Homo sapiens)
# chain: MMPMFLTVYLSNNEQHFTEVPVTPETICRDVVDLCKEPGESDCHLAEVWCGSERPVADNERMFDVLQRFGSQRNEVRFFLRHERPPGRDIVSGPRSQDPSLKRNGVKVPGEYRRKENGVNSPRMDLTLAELQEMASRQQQQIEAQQQLLATKEQRLKFLKQQDQRQQQQVAEQEKLKRLKEIAENQEAKLKKVRALKGHVEQKRLSNGKLVEEIEQMNNLFQQKQRELVLAVSKVEELTRQLEMLKNGRIDSHHDNQSAVAELDRLYKELQLRNKLNQEQNAKLQQQRECLNKRNSEVAVMDKRVNELRDRLWKKKAALQQKENLPVSSDGNLPQQAASAPSRVAAVGPYIQSSTMPRMPSRPELLVKPALPDGSLVIQASEGPMKIQTLPNMRSGAASQTKGSKIHPVGPDWSPSNADLFPSQGSASVPQSTGNALDQVDDGEVPLREKEKKVRPFSMFDAVDQSNAPPSFGTLRKNQSSEDILRDAQVANKNVAKVPPPVPTKPKQINLPYFGQTNQPPSDIKPDGSSQQLSTVVPSMGTKPKPAGQQPRVLLSPSIPSVGQDQTLSPGSKQESPPAAAVRPFTPQPSKDTLLPPFRKPQTVAASSIYSMYTQQQAPGKNFQQAVQSALTKTHTRGPHFSSVYGKPVIAAAQNQQQHPENIYSNSQGKPGSPEPETEPVSSVQENHENERIPRPLSPTKLLPFLSNPYRNQSDADLEALRKKLSNAPRPLKKRSSITEPEGPNGPNIQKLLYQRTTIAAMETISVPSYPSKSASVTASSESPVEIQNPYLHVEPEKEVVSLVPESLSPEDVGNASTENSDMPAPSPGLDYEPEGVPDNSPNLQNNPEEPNPEAPHVLDVYLEEYPPYPPPPYPSGEPEGPGEDSVSMRPPEITGQVSLPPGKRTNLRKTGSERIAHGMRVKFNPLALLLDSSLEGEFDLVQRIIYEVDDPSLPNDEGITALHNAVCAGHTEIVKFLVQFGVNVNAADSDGWTPLHCAASCNNVQVCKFLVESGAAVFAMTYSDMQTAADKCEEMEEGYTQCSQFLYGVQEKMGIMNKGVIYALWDYEPQNDDELPMKEGDCMTIIHREDEDEIEWWWARLNDKEGYVPRNLLGLYPRIKPRQRSLA
# How the values were obtained:
# [1] = molecular target: T3, E2F1 (Homo sapiens, UniProt Q01094); assay: Transient reporter assay of E2F1 transactivation function; format: cell-based; details: co-expression with E2F1, FIGS. 2C and 2D
# T3 construct: expressed in transfected cells
# [2] = molecular target: T1, p73α; assay: Transient luciferase reporter assay of p73α transactivation function; format: cell-based; details: for stimulation of the transactivation function of p73α on the Bax promoter: Example 16, FIGS. 14A and 14B; for transactivation function of p73α on the mdm2 promoter: FIG. 14C
# Description: To determine the amount of protein expression, Saos-2 cells (5×10^5) were plated 24 hours prior to transfection in 6 cm dishes. […] To determine the amount of gene activation, after transfection, the cells were lysed in Reporter Lysis Buffer 16-24 hours post-wash and assayed using the Luciferase Assay kit (Promega, Wis.). The fold activation of a particular reporter was determined by the activity of the transfected plasmid above the activity of vector alone.
# The expression level of transfected proteins was detected using 40 μg of the respective lysates using the antibodies V5, DX.5410, DO1, 4A4 and p73. […] Results were derived from at least three independent experiments.
# [3] = molecular target: T2, p63γ; assay: Co-immunoprecipitation with p63γ (in vitro translated; transfected H1299 and Saos-2 cells); format: binding; details: for interaction with p63γ in vitro: in vitro translated proteins, FIGS. 12B and 12C; for interaction with p63γ in vivo: transfected cells, FIGS. 13A and 13C
# Description: V5-tagged ASPP1 and ASPP2 proteins were in vitro translated with cold methionine using the TNT T7 Quick coupled Transcription/Translation System (Promega). Cell lysates were incubated at 30° C. for 1 hour and then immunoprecipitated with anti-V5 antibody on protein G agarose beads.
# The agarose beads were added to the binding reactions and incubated on a rotating wheel at 4° C. for 16 hours. The beads were then washed with PBS. The bound proteins were released in SDS gel sample buffer and analysed by 10% SDS-polyacrylamide gel electrophoresis (PAGE). The gels were wet transferred on to Protran nitrocellulose membrane and the resulting blots were first incubated with primary antibody and subsequently with the appropriate secondary HRP conjugated antibody (Dako). The blot was exposed to hyperfilm following the use of ECL substrate solution (Amersham Life Science).
# Cells were transfected with 1 μg of p63γ or p73α in the presence or absence of 10 μg of ASPP1 or ASPP2. Cell lysate (1 mg) was immunoprecipitated with an antiASPP1 or ASPP2 antibody (see Example 2 and 7). The immunoprecipitates were separated on an SDS gel and the presence of p63 or p73 on the immunoblots detected by mouse monoclonal antibodies 4A4 (Santa Cruz) and ER-15 (Neomarker) to p63 or p73, respectively. The presence of ASPP1 or ASPP2 was detected with antibodies YX.7 and DX5410, respectively.
# In some methods, larger amounts of cell lysate (2 mg) were immunoprecipitated with rabbit antibodies ASPP1.88 or BP77 to ASPP1 and ASPP2, respectively. The expression of ASPP1, ASPP2, p63γ and p73α was detected as described above.
# [4] = test system: U2OS and MCF7 cells; assay: Apoptosis by FACS in U2OS and MCF7 cells expressing wild-type p53, with or without cisplatin; format: cell-based, human; details: no cisplatin
# Description: The transfected cells were gated, and the apoptotic cells identified by FACS as described in Example 6.
# Before exposure to cisplatin (5 and 3 μg/ml respectively), U2OS and MCF7 cells were transfected with plasmids encoding HPV16 E6, iASPP, or 53BP2. Thirty hours later, cells were harvested and analysed as above.
# Fragments from the 5′ ends of ASPP1, ASPP2 and iASPP cDNA were cloned into a mammalian expression vector in an antisense orientation and their ability to inhibit the protein synthesis determined in vitro. The antisense nucleic acid molecules were amplified by PCR on the respective plasmid clones using primers spanning the following nucleotide regions (relative to the initial ATG): −74 to 923; −253 to 839 and −37 to 536 for ASPP1, ASPP2 and iASPP respectively. The amplified segments were purified with the QIAquick PCR purification kit (QIAGEN) and ligated in the pcDNA3.1/V5-His TOPO vector (Invitrogen) according to the manufacturer's instructions.
# U2OS and MCF-7 cells were transfected with the various expression plasmids prior to the treatment with cisplatin and analyzed using FACS as described above.
# To determine the anti-apoptotic role of iASPP, both U2OS and MCF-7 cells were transfected with antisense iASPP and cells analyzed as described above. […] A small increase in apoptotic cells was consistently detected (FIG. 7D).
# T3 sequence (Q01094 whole entry, species assumed): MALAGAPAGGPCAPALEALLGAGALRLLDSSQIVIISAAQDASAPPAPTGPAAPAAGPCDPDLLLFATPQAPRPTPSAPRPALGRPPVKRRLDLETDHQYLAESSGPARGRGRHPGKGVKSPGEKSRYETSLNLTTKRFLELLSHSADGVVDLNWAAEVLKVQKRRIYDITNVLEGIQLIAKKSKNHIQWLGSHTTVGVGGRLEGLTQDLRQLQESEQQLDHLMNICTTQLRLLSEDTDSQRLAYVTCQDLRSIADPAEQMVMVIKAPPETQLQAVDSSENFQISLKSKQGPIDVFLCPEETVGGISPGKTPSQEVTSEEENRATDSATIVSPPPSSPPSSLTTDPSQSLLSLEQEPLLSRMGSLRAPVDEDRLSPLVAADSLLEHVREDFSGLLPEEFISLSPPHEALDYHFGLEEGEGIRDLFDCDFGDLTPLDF
Molecule,"transactivation function of E2F1 on cyclin A, b-myb and synthetic promoter 3×wt [1]",stimulation of the transactivation function of p73α on the Bax promoter [2],transactivation function of p73α on the mdm2 promoter [2],interaction with p63γ in vitro [3],interaction with p63γ in vivo [3],apoptosis on expression in cells with endogenous wild-type p53 [4]
B1,failed to stimulate,3 fold,failed to stimulate,co-immunoprecipitated,co-immunoprecipitated transfected p63γ and p73α,induced apoptosis
B2,failed to stimulate,6 fold,failed to stimulate,co-immunoprecipitated,co-immunoprecipitated transfected p63γ and p73α,induced apoptosis
